In paper PMC6796855:

Molecular target: GST-ATG16L1N (human) (UniProt Q676U5)
Experiment: pull-down; recombinant GST fusion (2–200 nM) on glutathione resin, incubated with 1.5 mg of a 1:3.5 mixture of wild-type and ATG7 KO PC-3 lysates; 20 mM Tris-HCl pH 8.0, 200 mM NaCl, 1 mM EDTA, 0.5% NP-40; immunoblot for GST and ATG5; fraction bound quantified

Chain of native ATG12–ATG5 conjugate (Q9H1Y0 whole entry): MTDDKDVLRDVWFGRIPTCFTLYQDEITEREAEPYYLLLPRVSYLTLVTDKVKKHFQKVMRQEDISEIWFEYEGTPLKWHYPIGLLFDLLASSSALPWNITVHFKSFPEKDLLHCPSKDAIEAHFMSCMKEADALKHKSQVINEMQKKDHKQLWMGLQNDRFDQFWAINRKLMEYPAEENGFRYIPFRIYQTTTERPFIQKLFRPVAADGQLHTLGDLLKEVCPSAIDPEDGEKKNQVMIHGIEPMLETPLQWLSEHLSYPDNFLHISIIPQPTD
Chain of native ATG12–ATG5 conjugate (O94817 whole entry): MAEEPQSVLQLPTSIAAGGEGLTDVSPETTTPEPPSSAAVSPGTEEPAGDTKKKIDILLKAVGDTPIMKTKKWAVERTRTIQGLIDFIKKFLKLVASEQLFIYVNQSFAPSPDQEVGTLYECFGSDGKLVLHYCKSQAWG
Chain of GST-ATG16L1N (human) (Q676U5 1-69): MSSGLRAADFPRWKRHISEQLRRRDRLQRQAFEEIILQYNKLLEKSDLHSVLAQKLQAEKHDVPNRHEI

With “native ATG12–ATG5 conjugate (from UniProt Q9H1Y0 1-275; O94817 1-140) (complex)” the fold higher affinity than unconjugated ATG5 was 10 fold.
